Results on one protein are retold here after US7220569.

This data set deals with T1, Factor X analogue with the furin cleavage site Arg-Arg-Lys-Arg/Ile (rFX^RRKR/I).
T1 chain 1: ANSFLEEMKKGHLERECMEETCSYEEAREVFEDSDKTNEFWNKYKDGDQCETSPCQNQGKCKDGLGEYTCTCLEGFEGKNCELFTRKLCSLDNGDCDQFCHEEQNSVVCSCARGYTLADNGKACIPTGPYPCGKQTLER
T1 chain 2: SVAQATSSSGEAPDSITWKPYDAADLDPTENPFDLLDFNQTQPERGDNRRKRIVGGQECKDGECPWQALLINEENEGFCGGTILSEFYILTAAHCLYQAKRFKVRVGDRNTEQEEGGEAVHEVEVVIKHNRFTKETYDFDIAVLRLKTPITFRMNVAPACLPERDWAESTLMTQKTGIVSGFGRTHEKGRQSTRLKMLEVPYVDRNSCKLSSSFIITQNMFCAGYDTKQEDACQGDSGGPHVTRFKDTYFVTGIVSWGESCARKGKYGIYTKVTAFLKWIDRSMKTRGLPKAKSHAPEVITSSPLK

B1: rfurin deltaCys-spacer-10xHis (purified r-furin derivative) (protein)
chain: DVYQEPTDPKFPQQWYLSGVTQRDLNVKAAWAQGYTGHGIVVSILDDGIEKNHPDLAGNYDPGASFDVNDQDPDPQPRYTQMNDNRHGTRCAGEVAAVANNGVCGVGVAYNARIGGVRMLDGEVTDAVEARSLGLNPNHIHIYSASWGPEDDGKTVDGPARLAEEAFFRGVSQGRGGLGSIFVWASGNGGREHDSCNCDGYTNSIYTLSISSATQFGNVPWYSEACSSTLATTYSSGNQNEKQIVTTDLRQKCTESHTGTSASAPLAAGIIALTLEANKNLTWRDMQHLVVQTSKPAHLNANDWATNGVGRKVSHSYGYGLLDAGAMVALAQNWTTVAPQRKCIIDILTEPKDIGKRLEVRKTVTACLGEPNHITRLEHAQARLTLSYNRRGDLAIHLVSPMGTRSTLLAARPHDYSADGFNDWAFMTTHSWDEDPSGEWVLEIENTSEANNYGTLTKFTLVLYGTAPEG
The protein B1 gave an FXa activity (mU/ml), chromogenic substrate S2337, incubation 0 hours of under 25 mU/ml; an FXa activity (mU/ml), chromogenic substrate S2337, incubation 6 hours of 56 mU/ml; an FXa activity (mU/ml), chromogenic substrate S2337, incubation 24 hours of 101 mU/ml; an FXa activity (mU/ml), chromogenic substrate S2337, incubation 48 hours of 124 mU/ml. The FXa activity (mU/ml), chromogenic substrate S2337, incubation 72 hours was 133 mU/ml; the “conversion of the heavy chain to the activated form after 72 hours at 37 C (Western blot)” value is recorded as “about 50% of the starting material (HC) have been converted to the activated form”; the specific activity (mU/µg), incubation 0 hours stood at 0 mU/µg; the specific activity (mU/µg), incubation 6 hours came to 80 mU/µg. Further, the specific activity (mU/µg), incubation 24 hours came out at 144 mU/µg; the specific activity (mU/µg), incubation 48 hours was 177 mU/µg; the specific activity (mU/µg), incubation 72 hours was found to be 190 mU/µg.
